This passage reports IC50 and Percent Inhibition of CXCR4/CXCL12 Binding (400 nM peptide) results from US20220395553A1, “CXCR4 ANTAGONIST PEPTIDES” (COHBAR, INC., priority 2019, published 2022).

To fix the notation:
B1: SEQ ID NO: 57 (peptide)
peptide: LERYHHS[dA]RSSLRPYTK-NH2
modifications: N-terminus assumed
SMILES: CC(C)C[C@H](NC(=O)[C@H](CO)NC(=O)[C@H](CO)NC(=O)[C@H](CCCNC(=N)N)NC(=O)[C@@H](C)NC(=O)[C@H](CO)NC(=O)[C@H](Cc1c[nH]cn1)NC(=O)[C@H](Cc1c[nH]cn1)NC(=O)[C@H](Cc1ccc(O)cc1)NC(=O)[C@H](CCCNC(=N)N)NC(=O)[C@H](CCC(=O)O)NC(=O)[C@@H](N)CC(C)C)C(=O)N[C@@H](CCCNC(=N)N)C(=O)N1CCC[C@H]1C(=O)N[C@@H](Cc1ccc(O)cc1)C(=O)N[C@H](C(=O)N[C@@H](CCCCN)C(N)=O)[C@@H](C)O

Square brackets hold non-standard residues; d marks the D form. Ends that are not written are not given here.

Sequence of SNAP tagged-CXC4 receptor labeled with terbium (Tag-lite CXCR4 cells, HEK293) (P61073 whole entry): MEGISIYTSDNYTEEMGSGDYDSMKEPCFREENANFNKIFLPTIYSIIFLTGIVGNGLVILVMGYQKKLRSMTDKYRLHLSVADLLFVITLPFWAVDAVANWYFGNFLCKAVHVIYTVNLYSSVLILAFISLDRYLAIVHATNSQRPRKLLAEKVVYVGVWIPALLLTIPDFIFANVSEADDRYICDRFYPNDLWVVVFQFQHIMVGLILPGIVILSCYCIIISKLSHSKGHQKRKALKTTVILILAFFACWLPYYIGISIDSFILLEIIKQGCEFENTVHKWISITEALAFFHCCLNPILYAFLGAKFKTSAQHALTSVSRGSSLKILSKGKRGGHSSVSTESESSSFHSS

This experiment has as its target SNAP tagged-CXC4 receptor labeled with terbium (Tag-lite CXCR4 cells, HEK293) (UniProt P61073). Briefly: HTRF competition on Tag-lite CXCR4 HEK293 cells; competitor labelled CXCL12.
Regarding LRRYHHSVRSSLRPYTK-NH2 [SEQ ID NO: 16], the IC50 came to 573 nM and the Percent Inhibition of CXCR4/CXCL12 Binding (400 nM peptide) is -2%.

LERYHHSVRSSLRPYTK-NH2 [SEQ ID NO: 56]: the IC50 was 5 nM and the Percent Inhibition of CXCR4/CXCL12 Binding (400 nM peptide) came out at 79%.

As for B1, the IC50 is 7 nM and the Percent Inhibition of CXCR4/CXCL12 Binding (400 nM peptide) was found to be 77%.

Consider LERYHHT[dA]RSSLRPYTK [SEQ ID NO: 40], for which the Percent Inhibition of CXCR4/CXCL12 Binding (400 nM peptide) turned out to be 76%.
